Results as given in patent US20240398899A1 (priority 2021, published 2024).

Tests used:
Calbindin D = assay: Parkinson biomarker multiplex analysis/ELISA, MPP+ damaged SH-SY5Y; assay type: cell-based, human; settings: MPP + Iodide (2 mM)
Protocol: (§1) After overnight incubation as in the previous examples, cells were treated with recombinant lectin protein having SEQ ID NO: 1 at different concentrations ranging from 0.001 μg/ml-1 μg/ml for 24 h for Parkinson disease and 0.01 μg/ml-25 μg/ml for 24 h for Alzheimer's disease. • Parkinson Disease: After 24 h of pre-treatment with recombinant lectin protein having SEQ ID NO: 1, cells were exposed (MPP+) for another 24 h. Cells treated with MPP+Iodide were included as Control. […] The cells treated with Galantamine were included as positive Control.
(§2) The levels of markers were determined by multiplex analysis as: Cell culture supernatants were diluted (1:2) with Calibrator Diluent. 50 μl of standard or sample was added per well. 50 μl of the microparticle cocktail was added to each well of the microplate and covered with a foil plate sealer. The plate was incubated for 2 hours at room temperature on a horizontal orbital microplate shaker. The plate was washed using a magnetic device designed to accommodate a microplate. Washing was done by applying the magnet to the bottom of the microplate, allowing 1 minute before removing the liquid, filling each well with wash buffer (100 μl) and allowing 1 minute before removing the liquid again. 50 μl of diluted Biotin-Antibody Cocktail was added to each well. Covered the plate with a foil plate sealer and incubated for 1 hour at room temperature on the shaker. Repeated the wash step. 50 μl of diluted Streptavidin-PE was added to each well. The plate was securely covered with a foil plate sealer and incubated for 30 minutes at room temperature on the shaker. Repeated the wash step. The microparticles were resuspended by adding 100 μl of Wash Buffer to each well. The plate was incubated for 2 minutes on the shaker and read within 90 minutes using Magpix® multiplex machine. Levels of biomarkers for Parkinson's and Alzheimer's disease were estimated using Magpix® multiplex machine.
(§3) For Parkinson's the percent modulation in each sample was determined as follows:
(§4) [{Concentration of biomarkers(pg/ml) in SEQ ID NO:1+MPP+Iodide treated cells)−Concentration of biomarkers(pg/ml) in Control cells(MPP+Iodide alone treated)}/Concentration of biomarkers(pg/ml) in Control cells(MPP+Iodide alone treated)]*100

Dopamine = assay: as above; assay type: cell-based, human; settings: MPP + Iodide (2 mM)
Protocol: as §1, §2, §3, §4

ICAM1/CD54 = assay: as above; assay type: cell-based, human; settings: MPP + Iodide (2 mM)
Protocol: as §1, §2, §3, §4

Park7/DJ-1 = assay: as above; assay type: cell-based, human; settings: MPP + Iodide (2 mM)
Protocol: as §1, §2, §3, §4

S100b = assay: as above; assay type: cell-based, human; settings: MPP + Iodide (2 mM)
Protocol: as §1, §2, §3, §4

Serotonin = assay: as above; assay type: cell-based, human; settings: MPP + Iodide (2 mM)
Protocol: as §1, §2, §3, §4

α-Synuclein = assay: as above; assay type: cell-based, human; settings: 0.001 μg/mL to 1 μg/mL, MPP+ iodide
Protocol: as §1, §2, §3, §4

Swiss albino mice = assay: Passive avoidance test, scopolamine induced dementia; assay type: in vivo, Mus musculus (Swiss Albino)
Protocol: Required amount of recombinant lectin protein having SEQ ID NO: 1 was diluted in sterile Tris Buffered Saline (TBS) to achieve desired final concentration, i.e 0.1 mg/mL, 0.05 mg/mL, 0.025 mg/mL, at the doses of 0.5 mg/kg, 0.25 mg/kg and 0.125 mg/kg respectively. Formulation was prepared fresh daily.
TBS buffer and 0.5% CMC were used as a vehicle for preparation of test item, recombinant Lectin having SEQ ID NO: 1 and reference item formulation, respectively Male Mus musculus (Swiss Albino) aged between 8-10 weeks procured from GENTOX Bio services Pvt Ltd, Hyderabad. Animals were classified into 6 groups and acclimatized for two weeks. Animals were identified by cage labelling and tail marking and were randomized on the basis of their body weight.
Healthy male Swiss albino mice (n=48) were selected and randomized based on body weight (n=8 per Group) into 6 groups as mentioned in table no-1. The control group G1 was treated intravenously with vehicle daily till the experiment completion. Group G2 was considered as negative control and treated with vehicle. […] Group G4, G5 &G6 animals were treated with the test item recombinant lectin protein having SEQ ID NO: 1 at the dose of 0.5 mg/kg, 0.25 mg/kg and 0.125 mg/kg, respectively. All the test items were given intravenously (i.v) daily at the dose volume of 5 ml/kg for 14 Days. The body weight was recorded daily throughout the experimental period. […] One hour after the last dose of test items (on Day 14) all the animals were injected with scopolamine hydrobromide at the dose of 2.5 mg/kg, i.p., except the normal control group G1. Passive avoidance test was conducted 30 min after scopolamine injection.
This learning and memory test were performed in two chambers, which has square boxes, identical size, juxtaposed as illuminated and dark. A lamp was placed above one chamber for illumination. Each test involved two separate trials, a training trial and a test trial.
For the training trial, the mice were initially placed in the illuminated chamber. When the mice entered the dark chamber, an electrical shock (0.5 mA) for 3 sec. was delivered through stainless steel rods. The latency times once the mice entered from light compartment to the dark compartment was recorded using in-build timer. A test trial was performed 24 h following the training trial, and latency times to re-enter the dark chamber was measured up to 5 min

B1: SEQ ID NO: 1: variant of the S. rolfsii lectin amino acid sequence (reported as Rec-2 in WO2010/095143) (protein)
chain: TYKITVRVYQTNPDAFFHPVEKTVWKYANGGTWTITDDQHVLTMGGSGTSGTLRFHADNGESFTATFGVHNYKRWCDIVTNLAADETGMVINQQYYSQKNREEARERQLSNYQVKNAKGRNFQIVYTEAEGNDLHANLIIG
- % Change of Biomarkers markers (with respect to Control) Calbindin D (Calbindin D; 0.001 μg/mL): 9.7%
- % Change of Biomarkers markers (with respect to Control) Calbindin D (Calbindin D; 0.01 μg/mL): 8.2%
- % Change of Biomarkers markers (with respect to Control) Calbindin D (Calbindin D; 0.05 μg/mL): 1.7%
- % Change of Biomarkers markers (with respect to Control) Calbindin D (Calbindin D; 0.1 μg/mL): 6.6%
- % Change of Biomarkers markers (with respect to Control) Calbindin D (Calbindin D; 1 μg/mL): −1.6%
- % Change of Biomarkers markers (with respect to Control) Dopamine (Dopamine; 0.001 μg/mL): 50.6%
- % Change of Biomarkers markers (with respect to Control) Dopamine (Dopamine; 0.01 μg/mL): 82.5%
- % Change of Biomarkers markers (with respect to Control) Dopamine (Dopamine; 0.05 μg/mL): 24.7%
- % Change of Biomarkers markers (with respect to Control) Dopamine (Dopamine; 0.1 μg/mL): 28.9%
- % Change of Biomarkers markers (with respect to Control) Dopamine (Dopamine; 1 μg/mL): 22.9%
- % Change of Biomarkers markers (with respect to Control) ICAM1/CD54 (ICAM1/CD54; 0.001 μg/mL): 0%
- % Change of Biomarkers markers (with respect to Control) ICAM1/CD54 (ICAM1/CD54; 0.01 μg/mL): −6.2%
- % Change of Biomarkers markers (with respect to Control) ICAM1/CD54 (ICAM1/CD54; 0.05 μg/mL): −28.1%
- % Change of Biomarkers markers (with respect to Control) ICAM1/CD54 (ICAM1/CD54; 0.1 μg/mL): −36.3%
- % Change of Biomarkers markers (with respect to Control) ICAM1/CD54 (ICAM1/CD54; 1 μg/mL): −41.3%
- % Change of Biomarkers markers (with respect to Control) Park7/DJ-1 (Park7/DJ-1; 0.001 μg/mL): −2.5%
- % Change of Biomarkers markers (with respect to Control) Park7/DJ-1 (Park7/DJ-1; 0.01 μg/mL): −3.6%
- % Change of Biomarkers markers (with respect to Control) Park7/DJ-1 (Park7/DJ-1; 0.05 μg/mL): −7.1%
- % Change of Biomarkers markers (with respect to Control) Park7/DJ-1 (Park7/DJ-1; 0.1 μg/mL): −10.4%
- % Change of Biomarkers markers (with respect to Control) Park7/DJ-1 (Park7/DJ-1; 1 μg/mL): −12.6%
- % Change of Biomarkers markers (with respect to Control) S100b (S100b; 0.001 μg/mL): −11%
- % Change of Biomarkers markers (with respect to Control) S100b (S100b; 0.01 μg/mL): 9%
- % Change of Biomarkers markers (with respect to Control) S100b (S100b; 0.05 μg/mL): −6.7%
- % Change of Biomarkers markers (with respect to Control) S100b (S100b; 0.1 μg/mL): −6.5%
- % Change of Biomarkers markers (with respect to Control) S100b (S100b; 1 μg/mL): −11.4%
- % Change of Biomarkers markers (with respect to Control) Serotonin (Serotonin; 0.001 μg/mL): 15.4%
- % Change of Biomarkers markers (with respect to Control) Serotonin (Serotonin; 0.01 μg/mL): 5.1%
- % Change of Biomarkers markers (with respect to Control) Serotonin (Serotonin; 0.05 μg/mL): 6.9%
- % Change of Biomarkers markers (with respect to Control) Serotonin (Serotonin; 0.1 μg/mL): 7.9%
- % Change of Biomarkers markers (with respect to Control) Serotonin (Serotonin; 1 μg/mL): 23.5%
- modulation of α-Synuclein (α-Synuclein): no significant modulation
- % increase in Transfer Latency Time (Swiss albino mice; G4: 0.5 mg/kg i.v. qdx14, compared with G2 (scopolamine)): 33.2%
- Mean Transfer Latency Time (Swiss albino mice; G4: 0.5 mg/kg i.v. qdx14, scopolamine 2.5 mg/kg i.p.): 85.26 s
- Mean Transfer Latency Time (Swiss albino mice; G4: 0.5 mg/kg i.v. qdx14, scopolamine 2.5 mg/kg i.p., listed as SEQ ID NO 1): 85.26 ± 6.52 s
- % increase in Transfer Latency Time (Swiss albino mice; G5: 0.25 mg/kg i.v. qdx14, compared with G2 (scopolamine)): 29.4%
- Mean Transfer Latency Time (Swiss albino mice; G5: 0.25 mg/kg i.v. qdx14, scopolamine 2.5 mg/kg i.p.): 80.58 s
- Mean Transfer Latency Time (Swiss albino mice; G5: 0.25 mg/kg i.v. qdx14, scopolamine 2.5 mg/kg i.p., listed as SEQ ID NO 1): 80.58 ± 9.08 s
- % increase in Transfer Latency Time (Swiss albino mice; G6: 0.125 mg/kg i.v. qdx14, compared with G2 (scopolamine)): 24.9%
- Mean Transfer Latency Time (Swiss albino mice; G6: 0.125 mg/kg i.v. qdx14, scopolamine 2.5 mg/kg i.p.): 75.81 s
- Mean Transfer Latency Time (Swiss albino mice; G6: 0.125 mg/kg i.v. qdx14, scopolamine 2.5 mg/kg i.p., listed as SEQ ID NO 1): 75.81 ± 7.75 s
